From patent US20250326792A1, “A FORMULATION FOR TREATMENT OF PIGMENTARY DISORDERS” (priority 2022, published 2025)
PHPP = 3-Phenylpyrazolo[3,4-d]pyrimidine (N-terminal cap)

Columns and labels:
[1] = Stability of IS103 API, long term (Condition 2, −20±5° C.); format: physicochemical; conditions: for Internal change in attributes: Appearance / Internal change in attributes: Clarity of solution / Internal change in attributes: Color / Internal change in attributes: Color of solution / Internal change in attributes: Odor / API calculated on the anhydrous basis / Appearance white to off white amorphous powder / Related substances (By HPLC) Any Max Impurity / Related substances (By HPLC) Total Impurity / Solubility Sparingly soluble in water / Water Content (By Karl Fischer-Titrator): −20±5° C.
Protocol: The purpose of stability testing is to provide evidence on how the quality of a drug substance or drug product varies with time under the influence of a variety of environmental factors such as temperature, humidity, etc. and to establish a re-test period for the drug substance or a shelf life for the drug product and recommended storage conditions. The study was conducted according to the WHO and schedule-Y guidelines.
The IS103 API is a lyophilized white fluffy powder, and it was filled at sterile condition in glass injection vial which has airlock-rubber capping. This container closure system is same as or simulates the packaging proposed for storage and distribution.
The following test attributes have been selected according to the above said guidelines: • appearance; odour; colour; colour of solution (when IS103 API is soluble in solvent); clarity of solution; degradation and assessment of container closure system.
Testing frequency for long term studies have been designed as per schedule Y. The long-term stability studies have been conducted on 1, 3, 6, 9, 12, 18, 24 and 36 months.
The studies were conducted under appropriate storage conditions (with appropriate tolerances) that test IS103 API thermal stability and its sensitivity to moisture. The IS103 API is intended for storage for 36 months. Accordingly, long term stability studies were done for 36 months. The details of the storage conditions have been furnished hereunder.

B16F10 cells = assay: Melanin content assay in B16F10 cells; format: cell-based; conditions: for % increase in melanin content compared to control / Fold change in melanin content: B16F10 CELLS
Protocol: Culture and maintenance of cell lines: B16F10 cells were cultured in RPMI containing 10% fetal bovine serum, 100 units per millilitre (U/mL) penicillin, 0.1 mg/mL streptomycin, and 0.25 microgram per millilitre (μg/mL) amphotericin B at 37 degrees Celsius in a humidified 95% air/5% CO2 incubator. Drug treatment was done 24 hours after seeding. Cells were harvested 48 hours later and melanin content and tyrosinase activity determined in triplicate. NHEM cells were cultured in DMEM containing 10% fetal bovine serum, 100 units per milliliter (U/mL) penicillin, 0.1 mg/mL streptomycin, and 0.25 microgram per millilitre (μg/mL) amphotericin B at 37 degrees Celsius in a humidified 95% air/5% CO2 incubator. Drug treatment was done 24 hours after seeding. Cells were harvested 48 hours later and melanin content and tyrosinase activity determined in triplicate.
IS103 was dissolved in water for injection or DMSO to prepare stock solution of about 50 mg/ml. The stock solution was used for preparation of subsequent dilutions in solvent to achieve working dilutions for treatment ranging 0.1 μg/ml to 1000 μg/ml.
Cells were seeded in a 6-well plate (2×10^4 cells/well) and incubated overnight to allow the cells to adhere. After treating with various test samples for 4 or 5 days, cells were washed with phosphate-buffered saline (PBS), trypsinized, counted, and then lysed in 1 N NaOH at 100° C. for about 1 hour. The melanin content in each sample was calculated by comparison of absorbance at 400 nm of unknown samples with a standard curve obtained using synthetic melanin. […] B16F10 and NHEM cells were treated with different concentrations of IS103 ranging from 0.1 to 1000 μg/ml and analysed melanin contents in cells. […] To assess the toxicity of the IS103 peptide, cell viability was analyzed by MTT assay.

With “PHPP-Tyr-Arg-Ser-Arg-Lys-Tyr-Ser-Ser-Trp-Tyr-NH2 ({PHPP}-YRSRKYSSWY-NH2) [IS103]” the “found to be stable for” value ([1]; long term stability condition (of −20±5° C.)) was 36 months, the “Internal change in attributes: Appearance” value (“Internal change … Appearance” for short) ([1]; 1st month) was “No change” and the “Internal change in attributes: Clarity of solution” value ([1]; 1st month) was “No change”. The “Internal change in attributes: Color” value ([1]; 1st month) was “No change”, the “Internal change in attributes: Color of solution” value ([1]; 1st month) was “No change” and the “Internal change in attributes: Odor” value ([1]; 1st month) was “No change”. The “API calculated on the anhydrous basis” value ([1]; 3 M) was 99.51%, the “Appearance white to off white amorphous powder” value (“Appearance white” for short) ([1]; 3 M) was “White” and the “Related substances (By HPLC) Any Max Impurity” value ([1]; 3 M) was 0.22%. For the same substance, the “Related substances (By HPLC) Total Impurity” value ([1]; 3 M) was 0.37%, the “Solubility Sparingly soluble in water” value ([1]; 3 M) was “Complies” and the “Water Content (By Karl Fischer-Titrator)” value ([1]; 3 M) was 4.06% w/w. The “Internal change … Appearance” value ([1]; 3rd month) was “No change”, the “Internal change in attributes: Clarity of solution” value ([1]; 3rd month) was “No change” and the “Internal change in attributes: Color” value ([1]; 3rd month) was “No change”. The “Internal change in attributes: Color of solution” value ([1]; 3rd month) was “No change”, the “Internal change in attributes: Odor” value ([1]; 3rd month) was “No change” and the “API calculated on the anhydrous basis” value ([1]; 12 M) was 99.11%. For the same substance, the “Appearance white” value ([1]; 12 M) was “White”, the “Related substances (By HPLC) Any Max Impurity” value ([1]; 12 M) was 0.36% and the “Related substances (By HPLC) Total Impurity” value ([1]; 12 M) was 0.44%. The “Solubility Sparingly soluble in water” value ([1]; 12 M) was “Complies”, the “Water Content (By Karl Fischer-Titrator)” value ([1]; 12 M) was 4.45% w/w and the “Internal change … Appearance” value ([1]; 12th month) was “No change”. The “Internal change in attributes: Clarity of solution” value ([1]; 12th month) was “No change”, the “Internal change in attributes: Color” value ([1]; 12th month) was “No change” and the “Internal change in attributes: Color of solution” value ([1]; 12th month) was “No change”. For the same substance, the “Internal change in attributes: Odor” value ([1]; 12th month) was “No change”, the “API calculated on the anhydrous basis” value ([1]; 18 M) was 99.03% and the “Appearance white” value ([1]; 18 M) was “White”. The “Related substances (By HPLC) Any Max Impurity” value ([1]; 18 M) was 0.62%, the “Related substances (By HPLC) Total Impurity” value ([1]; 18 M) was 0.62% and the “Solubility Sparingly soluble in water” value ([1]; 18 M) was “Complies”. For the same substance, the “Water Content (By Karl Fischer-Titrator)” value ([1]; 18 M) was 4.54% w/w, the “Internal change … Appearance” value ([1]; 18th month) was “No change” and the “Internal change in attributes: Clarity of solution” value ([1]; 18th month) was “No change”. The “Internal change in attributes: Color” value ([1]; 18th month) was “No change”, the “Internal change in attributes: Color of solution” value ([1]; 18th month) was “No change” and the “Internal change in attributes: Odor” value ([1]; 18th month) was “No change”. The “API calculated on the anhydrous basis” value ([1]; 24 M) was 98.95%, the “Appearance white” value ([1]; 24 M) was “White” and the “Related substances (By HPLC) Any Max Impurity” value ([1]; 24 M) was 0.60%. For the same substance, the “Related substances (By HPLC) Total Impurity” value ([1]; 24 M) was 0.82%, the “Solubility Sparingly soluble in water” value ([1]; 24 M) was “Complies” and the “Water Content (By Karl Fischer-Titrator)” value ([1]; 24 M) was 4.61% w/w. The “Internal change … Appearance” value ([1]; 24th month) was “No change”, the “Internal change in attributes: Clarity of solution” value ([1]; 24th month) was “No change” and the “Internal change in attributes: Color” value ([1]; 24th month) was “No change”. The “Internal change in attributes: Color of solution” value ([1]; 24th month) was “No change”, the “Internal change in attributes: Odor” value ([1]; 24th month) was “No change” and the “API calculated on the anhydrous basis” value ([1]; 36 M) was 98.73%. The “Appearance white” value ([1]; 36 M) was “White”, the “Related substances (By HPLC) Any Max Impurity” value ([1]; 36 M) was 0.84% and the “Related substances (By HPLC) Total Impurity” value ([1]; 36 M) was 0.97%. For the same substance, the “Solubility Sparingly soluble in water” value ([1]; 36 M) was “Complies”, the “Water Content (By Karl Fischer-Titrator)” value ([1]; 36 M) was 4.56% w/w and the “Internal change … Appearance” value ([1]; 36th month) was “No change”. For the same substance, the “Internal change in attributes: Clarity of solution” value ([1]; 36th month) was “No change”, the “Internal change in attributes: Color” value ([1]; 36th month) was “No change” and the “Internal change in attributes: Color of solution” value ([1]; 36th month) was “No change”. The “Internal change in attributes: Odor” value ([1]; 36th month) was “No change”, the “API calculated on the anhydrous basis” value ([1]; Initial) was 99.73% and the “Appearance white” value ([1]; Initial) was “White”. For the same substance, the “Related substances (By HPLC) Any Max Impurity” value ([1]; Initial) was 0.14%, the “Related substances (By HPLC) Total Impurity” value ([1]; Initial) was 0.32% and the “Solubility Sparingly soluble in water” value ([1]; Initial) was “Complies”. For the same substance, the “Water Content (By Karl Fischer-Titrator)” value ([1]; Initial) was 3.91% w/w, the “% increase in melanin content compared to control” value (“% increase in melanin content” below) (B16F10 cells; 0.1 μg/mL) was 0% and the “Fold change in melanin content” value (B16F10 cells; 0.1 μg/mL) was 1.0 ± 0.20. For the same substance, the “% increase in melanin content” value (B16F10 cells; 1 μg/mL) was 0%, the “Fold change in melanin content” value (B16F10 cells; 1 μg/mL) was 1.0 ± 0.30 and the “% increase in melanin content” value (B16F10 cells; 10 μg/mL) was 20%. The “Fold change in melanin content” value (B16F10 cells; 10 μg/mL) was 1.2 ± 0.10, the “% increase in melanin content” value (B16F10 cells; 50 μg/mL) was 60% and the “Fold change in melanin content” value (B16F10 cells; 50 μg/mL) was 1.6 ± 0.20. The “% increase in melanin content” value (B16F10 cells; 100 μg/mL) was 125%, the “Fold change in melanin content” value (B16F10 cells; 100 μg/mL) was 2.3 ± 0.30 and the “% increase in melanin content” value (B16F10 cells; 250 μg/mL) was 180%. For the same substance, the “Fold change in melanin content” value (B16F10 cells; 250 μg/mL) was 2.8 ± 0.20, the “% increase in melanin content” value (B16F10 cells; 500 μg/mL) was 190% and the “Fold change in melanin content” value (B16F10 cells; 500 μg/mL) was 2.9 ± 0.10. The “% increase in melanin content” value (B16F10 cells; 1000 μg/mL) was 176%, the “Fold change in melanin content” value (B16F10 cells; 1000 μg/mL) was 2.8 ± 0.30 and the “concentration sufficient to significantly enhance melanin synthesis” value (B16F10 cells; B16F10 and NHEM cells, not distinguished) was 10 µg/mL. The “effect on melanin synthesis (FIG. 4)” value (B16F10 cells; B16F10 cells, different concentrations, about 48 hours) was “enhanced melanin synthesis in a dose-dependent manner”.
